Assay in all cases: MST
Data set [1] has as its target RSV postfusion F (Respiratory syncytial virus) (UniProt P03420+P03420). The settings on record: T in primer region unmodified, MST: PBS, 0.05% Tween 20, 25 C, 10-20 nM Cy5-aptamer, AlphaScreen: PBS with mucin 10 mg/L, BSA 1 mg/ml, salmon sperm DNA 1 mg/L, RT, 10 nM biotin-aptamer …. (Bead proximity is the source of the signal in Alpha formats.)
In data set [2] the test system is Influenza H1 hemagglutinin S106 DS26r (Influenza virus H1). The settings on record: every U is TAdU (5-[(3-indolyl)propionamide-N-allyl]-2'-deoxyuridine); all sugars deoxyribose; T in primer region unmodified; MST: PBS, 0.05% Tween 20, 25 C, 10-20 nM Cy5-aptamer; AlphaScreen: PBS with mucin 10 mg/L, BSA 1 mg/ml, salmon sperm DNA 1 mg/L, RT, 10 nM biotin-aptamer ….

Data set [3] deals with hMPV prefusion F v3B (Human metapneumovirus) (UniProt Q6WB98). The settings on record: every U is TAdU (5-[(3-indolyl)propionamide-N-allyl]-2'-deoxyuridine); all sugars deoxyribose; T in primer region unmodified; MST: PBS, 0.05% Tween 20, 25 C, 10-20 nM Cy5-aptamer; AlphaScreen: PBS with mucin 10 mg/L, BSA 1 mg/ml, salmon sperm DNA 1 mg/L, RT, 10 nM biotin-aptamer ….
hMPV prefusion F v3B (Human metapneumovirus), sequence (Q6WB98 whole entry, the tested form may be a part): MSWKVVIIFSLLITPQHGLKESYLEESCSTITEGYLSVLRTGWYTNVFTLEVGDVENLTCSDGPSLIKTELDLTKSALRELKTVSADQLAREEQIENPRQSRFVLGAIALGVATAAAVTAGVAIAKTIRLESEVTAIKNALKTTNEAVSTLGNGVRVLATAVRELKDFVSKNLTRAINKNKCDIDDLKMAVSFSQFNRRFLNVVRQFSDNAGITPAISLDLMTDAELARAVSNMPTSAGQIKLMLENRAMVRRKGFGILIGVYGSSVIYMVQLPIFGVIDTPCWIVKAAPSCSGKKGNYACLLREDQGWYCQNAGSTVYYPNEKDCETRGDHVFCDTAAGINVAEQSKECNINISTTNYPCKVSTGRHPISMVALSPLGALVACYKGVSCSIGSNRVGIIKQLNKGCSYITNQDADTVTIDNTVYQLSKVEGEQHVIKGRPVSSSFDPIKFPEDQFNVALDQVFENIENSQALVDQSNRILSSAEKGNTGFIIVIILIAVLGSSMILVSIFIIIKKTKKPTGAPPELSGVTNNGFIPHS

As for “GATCGAGCCAGCTACGTCAGUUAUGGUAUAGGUUGGUGGUGGGGGGGGGUUGUGGUGGGACAUGCCUCAGCGACUA [B1]”, in data set [1] (every U is TAdU (deoxy)), the dissociation constant (Kd) was found to be 3.99 µM.

Take “GATCGAGCCAGCTACGTCAUGCUGUCAAUGGGUGGGUGUGGUGGGGUUGAUGUUAUGUGACAUGCCUCAGCGACUA [A2]”: the Kd in data set [2] was determined as 14.7 µM; in data set [1] (every U is TAdU (5-[(3-indolyl)propionamide-N-allyl]-2'-deoxyuridine), all sugars deoxyribose), 0.994 µM; in data set [3] it was 6.95 µM. Sequence “GATCGAGCCAGCTACGTCAUGGUUGGGAGGUGUUGUGGGGAUGGUGGGUGGGAGUAUGACAUGCCUCAGCGACUA [D4]” registered a dissociation constant (Kd) in data set [1] (every U is TAdU (deoxy)) of 2.76 µM.

A word on the Kd: it is the free concentration of one partner at which half of the binding sites on the other are occupied at equilibrium, for simple one-to-one binding.

Source of the values: PMC10251311.
